Experimental data from publication PMC9138545 (2022).
Square brackets hold non-standard residues; d marks the D form. Ends that are not written are not given here. pY = N[C@@H](Cc1ccc(OP(=O)(O)O)cc1)C(=O)O

Legend:
[1] = target: C-terminal SH2 domain of PI3K regulatory subunit 1 (UniProt P27986 614-724); experiment: FP
[2] = target: N-terminal SH2 domain of PI3K regulatory subunit 1 (UniProt P27986 321-433); experiment: FP
N-terminal SH2 domain of PI3K regulatory subunit 1, sequence (P27986 321-433): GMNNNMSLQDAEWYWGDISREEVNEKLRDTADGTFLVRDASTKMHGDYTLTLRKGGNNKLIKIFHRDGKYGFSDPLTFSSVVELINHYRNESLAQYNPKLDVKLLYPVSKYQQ

C-terminal SH2 domain of PI3K regulatory subunit 1, sequence (P27986 614-724): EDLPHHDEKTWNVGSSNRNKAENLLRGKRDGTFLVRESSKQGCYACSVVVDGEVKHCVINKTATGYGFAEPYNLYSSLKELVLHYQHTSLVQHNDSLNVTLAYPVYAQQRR

B1: fluorescently labelled phospho-para-tyrosine IRS-1 peptide GRKGSGD(pY)MPMSPKS(K-FITC) (peptide)
peptide: GRKGSGDYMPMSPKSK
modifications: not fully specified; phosphotyrosine at position 8 of the peptide (tyrosine residue 632 of human IRS1); lys-carboxyfluorescein (K-FITC) at the C-terminal end
Q: How did the Kd [1] turn out when B1 was run?
A: 18.6 nM

Q: And the Kd [2]?
A: 408 nM

Q: GRKGSGD[pY]MPMSPKV-NH2 [phospho-para-Tyr IRS-1 peptide GRKGSGD(pY)MPMSPKV] was tested. Which Kd [1] did it give?
A: 2.1 nM

Q: And the Kd [2]?
A: 137 nM
